According to paper PMC11976700, “Engineering of Conserved Sequence Motif 1 Residues in Halohydrin Dehalogenase HheC Simultaneously Enhances Activity, Stability, and Enantioselectivity” (ACS Catalysis, 2025):
Read-outs that look alike come from different tables or passages of the source.

What was measured:
ClCC1CO1 = assay: purified protein; details: 2 mM MOPS-SO4 pH 7.0, 30 °C
OC(CCl)CCl = test system: T1, OC(CCl)CCl; assay: dehalogenation, halide release assay, Michaelis-Menten fit; type: biochemical, Agrobacterium tumefaciens; details: 25 mM Tris-SO4 pH 7.0, 30 °C
T1 construct: E. coli BL21(DE3); homotetramer
Description: (§1) dehalogenation, halide release assay, Michaelis-Menten fit on HheC

purified protein = substrate: ClCC1CO1; assay: purified protein; details: 2 mM MOPS-SO4 pH 7.0, 30 °C, fixed nonsaturating azide (100 mM in table footnote, 60 mM in methods)
[1] = substrate: OC(CCl)CCl; assay: dehalogenation, halide release assay, Michaelis-Menten fit; type: biochemical, Agrobacterium tumefaciens; details: 25 mM Tris-SO4 pH 7.0, 30 °C
Description: as §1

[2] = substrate: C1CCC2OC2C1; type: biochemical, Ilumatobacter coccineus; details: 2 mM MOPS-SO4 pH 7.0, 22 °C, fixed azide (100 mM in table footnote, 60 mM in methods)
[3] = substrate: C1CCC2OC2C1; type: biochemical, Ilumatobacter coccineus; details: 2 mM MOPS-SO4 pH 7.0, 22 °C, fixed azide (100 mM in table footnote, 60 mM in methods); remark: listed apart in the source
[4] = substrate: C1CCC2OC2C1; type: biochemical, Ilumatobacter coccineus; details: 2 mM MOPS-SO4 pH 7.0, 22 °C, fixed azide (100 mM in table footnote, 60 mM in methods); remark: listed apart in the source
[5] = substrate: C1CCC2OC2C1; type: biochemical, Ilumatobacter coccineus; details: 2 mM MOPS-SO4 pH 7.0, 22 °C, fixed 100 mM azide
[6] = fixed nonsaturating azide (100 mM in table footnote, 60 mM in methods)

HheC (Agrobacterium tumefaciens; G14A)
K0.5 (ClCC1CO1; fixed 100 mM azide): 49.5 ± 1.52 mM | Km (OC(CCl)CCl): 920 ± 370 µM | kcat (OC(CCl)CCl): 0.05 ± 0.00 s⁻¹

HheC (Agrobacterium tumefaciens; T7S)
K0.5 (ClCC1CO1; [6]): 40.3 ± 6.88 mM | Km (OC(CCl)CCl): 810 ± 230 µM | kcat (OC(CCl)CCl): 1.37 ± 0.07 s⁻¹

HheC (Agrobacterium tumefaciens; F12Y)
K0.5 (ClCC1CO1; [6]): 14.2 ± 0.67 mM | Km (OC(CCl)CCl): 980 ± 190 µM | kcat (OC(CCl)CCl): 6.30 ± 0.26 s⁻¹

B1: HheC (Agrobacterium tumefaciens) (protein)
chain: MSTAIVTNVKHFGGMGSALRLSEAGHTVACHDESFKQKDELEAFAETYPQLKPMSEQEPAELIEAVTSAYGQVDVLVSNDIFAPEFQPIDKYAVEDYRGAVEALQIRPFALVNAVASQMKKRKSGHIIFITSATPFGPWKELSTYTSARAGACTLANALSKELGEYNIPVFAIGPNYLHSEDSPYFYPTEPWKTNPEHVAHVKKVTALQRLGTQKELGELVAFLASGSCDYLTGQVFWLAGGFPMIERWPGMPE
notes: E. coli BL21(DE3); homotetramer
K0.5 (purified protein): 18.8 ± 1.24 mM | Km [1]: 450 ± 140 µM | kcat [1]: 1.84 ± 0.11 s⁻¹

B2: HheG (Ilumatobacter coccineus YM16-304; T13S) (protein)
chain: MSNAENRPVALISMATGYVGPALARTMADRGFDLVLHGTAGDGTMVGVEESFDSQIADLAKRGADVLTISDVDLTTRTGNQSMIERVLERFGRLDSACLVTGLIVTGKFLDMTDDQWAKVKATNLDMVFHGLQAVLPPMVAAGAGQCVVFTSATGGRPDPMVSIYGGTRAGANGIVRAVGLEHARHGVQVNAIGTNYMDFPGFLKASRADGDPERRAMIEAQVPLRRLGTMDELSSVTAGLLDGSNRFQTGQFFDFSGGWGA
notes: as for B1
K0.5 [2]: 44.8 ± 1.29 mM

B3: HheG (Ilumatobacter coccineus YM16-304) (protein)
chain: MSNAENRPVALITMATGYVGPALARTMADRGFDLVLHGTAGDGTMVGVEESFDSQIADLAKRGADVLTISDVDLTTRTGNQSMIERVLERFGRLDSACLVTGLIVTGKFLDMTDDQWAKVKATNLDMVFHGLQAVLPPMVAAGAGQCVVFTSATGGRPDPMVSIYGGTRAGANGIVRAVGLEHARHGVQVNAIGTNYMDFPGFLKASRADGDPERRAMIEAQVPLRRLGTMDELSSVTAGLLDGSNRFQTGQFFDFSGGWGA
notes: as for B1
K0.5 [3]: 39.4 ± 2.69 mM

B4: HheG (Ilumatobacter coccineus YM16-304; Y18F) (protein)
chain: MSNAENRPVALITMATGFVGPALARTMADRGFDLVLHGTAGDGTMVGVEESFDSQIADLAKRGADVLTISDVDLTTRTGNQSMIERVLERFGRLDSACLVTGLIVTGKFLDMTDDQWAKVKATNLDMVFHGLQAVLPPMVAAGAGQCVVFTSATGGRPDPMVSIYGGTRAGANGIVRAVGLEHARHGVQVNAIGTNYMDFPGFLKASRADGDPERRAMIEAQVPLRRLGTMDELSSVTAGLLDGSNRFQTGQFFDFSGGWGA
notes: as for B1
K0.5 [4]: 66.4 ± 1.42 mM

B5: HheG (Ilumatobacter coccineus YM16-304; G20A) (protein)
chain: MSNAENRPVALITMATGYVAPALARTMADRGFDLVLHGTAGDGTMVGVEESFDSQIADLAKRGADVLTISDVDLTTRTGNQSMIERVLERFGRLDSACLVTGLIVTGKFLDMTDDQWAKVKATNLDMVFHGLQAVLPPMVAAGAGQCVVFTSATGGRPDPMVSIYGGTRAGANGIVRAVGLEHARHGVQVNAIGTNYMDFPGFLKASRADGDPERRAMIEAQVPLRRLGTMDELSSVTAGLLDGSNRFQTGQFFDFSGGWGA
notes: as for B1
K0.5 [5]: 42.2 ± 3.64 mM
